Our source for the abundance fitness values is the Human Domainome abundance scans (Beltran et al. 2025).

± gives the uncertainty stated by the source.

A short description of the data set: abundance fitness (aPCA) (normalised: wild type 0, dead -1); higher = more abundant; growth selection in yeast, the domain comes from the species named. As to conditions: Homo sapiens.
“Scaffold attachment factor B2 I36Q, Q14151”: the abundance fitness worked out at 0.08 ± 0.12.

Consider “Scaffold attachment factor B2 I36R, Q14151”, for which the abundance fitness came out at 0.079 ± 0.071.

On to “Scaffold attachment factor B2 I36S, Q14151”, for which the abundance fitness was found to be 0.127 ± 0.081.

In turn, “Scaffold attachment factor B2 I36T, Q14151” gave an abundance fitness of 0.173 ± 0.12.

“Scaffold attachment factor B2 I36V, Q14151” returned an abundance fitness of -0.002 ± 0.091.

Regarding “Scaffold attachment factor B2 K43A, Q14151”, the abundance fitness is 0.022 ± 0.097.

On to “Scaffold attachment factor B2 K43C, Q14151”, for which the abundance fitness is -0.271 ± 0.12.

Take “Scaffold attachment factor B2 K43D, Q14151”: the abundance fitness is -0.147 ± 0.11.

Take “Scaffold attachment factor B2 K43E, Q14151”: the abundance fitness was -0.071 ± 0.084.

On to “Scaffold attachment factor B2 K43F, Q14151”, for which the abundance fitness was -0.601 ± 0.15.

Substance “Scaffold attachment factor B2 K43G, Q14151” gave an abundance fitness of -0.172 ± 0.074.

The substance “Scaffold attachment factor B2 K43I, Q14151” had an abundance fitness of -0.599 ± 0.17.

Substance “Scaffold attachment factor B2 K43L, Q14151” came in with an abundance fitness of -0.191 ± 0.089.

In the case of “Scaffold attachment factor B2 K43N, Q14151”, the abundance fitness was -0.367 ± 0.2.

As to “Scaffold attachment factor B2 K43P, Q14151”, the abundance fitness is -0.486 ± 0.12.

With “Scaffold attachment factor B2 K43Q, Q14151”, the abundance fitness was -0.124 ± 0.096.

With “Scaffold attachment factor B2 K43R, Q14151”, the abundance fitness was -0.104 ± 0.076.

“Scaffold attachment factor B2 K43S, Q14151”: the abundance fitness was -0.057 ± 0.091.

“Scaffold attachment factor B2 K43T, Q14151” had an abundance fitness of -0.217 ± 0.1.

In turn, “Scaffold attachment factor B2 K43V, Q14151” returned an abundance fitness of -0.149 ± 0.1.

Substance “Scaffold attachment factor B2 K43W, Q14151” displayed an abundance fitness of -0.359 ± 0.094.

As to “Scaffold attachment factor B2 K43Y, Q14151”, the abundance fitness is -0.961 ± 0.25.

“Scaffold attachment factor B2 K44A, Q14151” showed an abundance fitness of -0.067 ± 0.08.

For the substance “Scaffold attachment factor B2 K44C, Q14151”, the abundance fitness is -0.48 ± 0.12.

In the case of “Scaffold attachment factor B2 K44D, Q14151”, the abundance fitness was -0.549 ± 0.19.

Substance “Scaffold attachment factor B2 K44E, Q14151” gave an abundance fitness of -0.219 ± 0.091.

For “Scaffold attachment factor B2 K44F, Q14151”, the abundance fitness was -0.61 ± 0.12.

With “Scaffold attachment factor B2 K44G, Q14151”, the abundance fitness is -0.225 ± 0.072.

The substance “Scaffold attachment factor B2 K44L, Q14151” came in with an abundance fitness of -0.256 ± 0.11.

The substance “Scaffold attachment factor B2 K44M, Q14151” had an abundance fitness of -0.379 ± 0.14.

“Scaffold attachment factor B2 K44N, Q14151” returned an abundance fitness of -0.27 ± 0.13.

On to “Scaffold attachment factor B2 K44P, Q14151”, for which the abundance fitness is -0.509 ± 0.088.

Substance “Scaffold attachment factor B2 K44Q, Q14151” displayed an abundance fitness of -0.1 ± 0.18.

Turning to “Scaffold attachment factor B2 K44R, Q14151”, the abundance fitness is -0.06 ± 0.071.

In turn, “Scaffold attachment factor B2 K44S, Q14151” yielded an abundance fitness of -0.183 ± 0.083.

“Scaffold attachment factor B2 K44T, Q14151” gave an abundance fitness of -0.347 ± 0.1.

“Scaffold attachment factor B2 K44V, Q14151” showed an abundance fitness of -0.221 ± 0.084.

With “Scaffold attachment factor B2 K44W, Q14151”, the abundance fitness is -0.508 ± 0.081.

“Scaffold attachment factor B2 K44Y, Q14151” yielded an abundance fitness of -0.494 ± 0.15.

The substance “Scaffold attachment factor B2 K53A, Q14151” returned an abundance fitness of -0.516 ± 0.08.

For “Scaffold attachment factor B2 K53C, Q14151”, the abundance fitness is -0.368 ± 0.081.

Consider “Scaffold attachment factor B2 K53D, Q14151”, for which the abundance fitness was -0.716 ± 0.22.

As to “Scaffold attachment factor B2 K53E, Q14151”, the abundance fitness is -0.136 ± 0.091.

“Scaffold attachment factor B2 K53F, Q14151” had an abundance fitness of -0.445 ± 0.13.

As to “Scaffold attachment factor B2 K53G, Q14151”, the abundance fitness was -0.473 ± 0.076.

With “Scaffold attachment factor B2 K53L, Q14151”, the abundance fitness is -0.326 ± 0.078.

The substance “Scaffold attachment factor B2 K53M, Q14151” showed an abundance fitness of -0.338 ± 0.11.

As for “Scaffold attachment factor B2 K53N, Q14151”, the abundance fitness is -0.463 ± 0.14.

Take “Scaffold attachment factor B2 K53P, Q14151”: the abundance fitness is -0.204 ± 0.099.

As to “Scaffold attachment factor B2 K53Q, Q14151”, the abundance fitness was -0.274 ± 0.12.

Substance “Scaffold attachment factor B2 K53R, Q14151” had an abundance fitness of -0.047 ± 0.085.

As for “Scaffold attachment factor B2 K53T, Q14151”, the abundance fitness was -0.352 ± 0.11.

Take “Scaffold attachment factor B2 K53V, Q14151”: the abundance fitness is -0.577 ± 0.083.

The substance “Scaffold attachment factor B2 K53W, Q14151” displayed an abundance fitness of -0.39 ± 0.11.

With “Scaffold attachment factor B2 K53Y, Q14151”, the abundance fitness is -0.054 ± 0.43.

In the case of “Scaffold attachment factor B2 K61A, Q14151”, the abundance fitness was determined as 0.022 ± 0.084.

As to “Scaffold attachment factor B2 K61C, Q14151”, the abundance fitness is -0.303 ± 0.15.

Consider “Scaffold attachment factor B2 K61D, Q14151”, for which the abundance fitness was -0.082 ± 0.17.

“Scaffold attachment factor B2 K61G, Q14151” had an abundance fitness of -0.015 ± 0.1.

“Scaffold attachment factor B2 K61H, Q14151”: the abundance fitness was -0.128 ± 0.11.

For “Scaffold attachment factor B2 K61L, Q14151”, the abundance fitness was -0.282 ± 0.083.

Turning to “Scaffold attachment factor B2 K61M, Q14151”, the abundance fitness was -0.186 ± 0.11.

In the case of “Scaffold attachment factor B2 K61N, Q14151”, the abundance fitness was -0.002 ± 0.095.

“Scaffold attachment factor B2 K61P, Q14151” showed an abundance fitness of -0.203 ± 0.13.

As for “Scaffold attachment factor B2 K61Q, Q14151”, the abundance fitness is -0.072 ± 0.096.

“Scaffold attachment factor B2 K61R, Q14151” came in with an abundance fitness of -0.184 ± 0.095.

With “Scaffold attachment factor B2 K61S, Q14151”, the abundance fitness is -0.359 ± 0.091.

The substance “Scaffold attachment factor B2 K61T, Q14151” had an abundance fitness of -0.22 ± 0.17.

For “Scaffold attachment factor B2 K61V, Q14151”, the abundance fitness is -0.094 ± 0.095.

In turn, “Scaffold attachment factor B2 K61W, Q14151” gave an abundance fitness of -0.357 ± 0.1.

Substance “Scaffold attachment factor B2 K61Y, Q14151” registered an abundance fitness of -0.792 ± 0.32.

In turn, “Scaffold attachment factor B2 K62C, Q14151” displayed an abundance fitness of -0.303 ± 0.12.

“Scaffold attachment factor B2 K62D, Q14151”: the abundance fitness is -0.123 ± 0.13.

“Scaffold attachment factor B2 K62E, Q14151” yielded an abundance fitness of -0.002 ± 0.1.

With “Scaffold attachment factor B2 K62F, Q14151”, the abundance fitness was -0.385 ± 0.1.

“Scaffold attachment factor B2 K62G, Q14151” registered an abundance fitness of -0.115 ± 0.07.

Substance “Scaffold attachment factor B2 K62H, Q14151” registered an abundance fitness of -0.083 ± 0.15.

“Scaffold attachment factor B2 K62L, Q14151” displayed an abundance fitness of -0.212 ± 0.11.

In turn, “Scaffold attachment factor B2 K62M, Q14151” had an abundance fitness of -0.288 ± 0.19.

Substance “Scaffold attachment factor B2 K62N, Q14151” displayed an abundance fitness of -0.246 ± 0.14.

In the case of “Scaffold attachment factor B2 K62P, Q14151”, the abundance fitness was -0.407 ± 0.2.

Substance “Scaffold attachment factor B2 K62Q, Q14151” showed an abundance fitness of -0.125 ± 0.13.

“Scaffold attachment factor B2 K62R, Q14151”: the abundance fitness was -0.075 ± 0.078.

Take “Scaffold attachment factor B2 K62S, Q14151”: the abundance fitness is -0.125 ± 0.095.

Take “Scaffold attachment factor B2 K62V, Q14151”: the abundance fitness is -0.163 ± 0.1.

As to “Scaffold attachment factor B2 K62W, Q14151”, the abundance fitness was -0.375 ± 0.12.

Turning to “Scaffold attachment factor B2 K62Y, Q14151”, the abundance fitness was -0.447 ± 0.37.

Substance “Scaffold attachment factor B2 K65A, Q14151” yielded an abundance fitness of -0.138 ± 0.12.

The substance “Scaffold attachment factor B2 K65C, Q14151” came in with an abundance fitness of -0.145 ± 0.12.

Turning to “Scaffold attachment factor B2 K65D, Q14151”, the abundance fitness was 0.036 ± 0.14.

“Scaffold attachment factor B2 K65F, Q14151” came in with an abundance fitness of -0.396 ± 0.22.

“Scaffold attachment factor B2 K65H, Q14151”: the abundance fitness is 0.463 ± 0.23.

“Scaffold attachment factor B2 K65I, Q14151” showed an abundance fitness of -0.241 ± 0.14.

The substance “Scaffold attachment factor B2 K65L, Q14151” had an abundance fitness of -0.205 ± 0.1.

As for “Scaffold attachment factor B2 K65M, Q14151”, the abundance fitness was -0.181 ± 0.11.

In turn, “Scaffold attachment factor B2 K65N, Q14151” gave an abundance fitness of -0.148 ± 0.37.
